Measurements: the nanobody polyreactivity screen of Harvey et al. (2022)

Assay: yeast display, Sf9 membrane polyspecificity reagent, FACS + sequencing; frameworks hold sequencing errors
Outline: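 A synthetic nanobody library was expressed on Saccharomyces cerevisiae BJ5465 by galactose induction for 36–48 hours. The library was stained for 1 hour at 4 °C with 10% biotinylated, detergent-solubilized Sf9 membrane reagent and enriched with streptavidin microbeads before FACS. Low and high (top ~1%) gates were set on anti-HA fluorescence for expression and streptavidin fluorescence for reagent binding, and each polyreactivity label reflects the gate of origin.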

| Sequence | polyreactivity (PSR sort gate) |
| --- | --- |
| QVQLVESGGGLVQAGGSLRLSCAPSGGTFALYAMGWYRQAPGKERELVASISFNGGSTYYADSVKGRFTISRDNAKNTVYLQMNSLKPEDTAVYYCNTGYQWGVYESQTAVEDYWGQGTQVTVSS | low polyreactivity |
| QVQLVESGGGLVQAGGSLRLSCAASGIIFIKYSMGWYRQAPGKERELVAAITSGGSTHYADSVKGRFTISRDNAKNTVYLQMNSLKPEDTAVYYCYADILRHVAYFKDRYQAGSYWGQGTQVTVSS | low polyreactivity |
| QVQLVESGGGLVQAGGSLRLSCAASGFTFISYAMGWYRQAPGKERELVADISSSGDSTSYADSVKGRFTISRDNAKNTVYLQMNSLKPEDTAVYYCAAGDGYVYGEYDYWGQGTQVTVSS | low polyreactivity |
| QVQLVESGGGLVQAGGSLRLSCAASGSTYGGYAMGWYRQAPGKETELVAAISRSGSSTYYADSVKGRFTISRDNAKNTVYLQMNSLKPEDTAVYYCAKRRPALRWIYYYWGQGTQVTVSS | high polyreactivity |
| QVQLVESVGGLVQAGRSHRLSGAASCFTFTGYALGWYRQAPGKEREFVAAISRGGSTKYADSVMGRFTISRDNAKNTVYLQMNSLKPEDTAVYYCDASPVYGISRYTLGIYNYGGQGTQVTVSS | high polyreactivity |
| QVQLVESGGRLVQAGGSLRLSCAASGYIFERNAMGWYRPAPGKERELVAAITDDGDDTYYADSVKGRFTISRDNEKNTVYLQLYSLKPEDTAVYYCAKDLYYGDYYYWGQGTQVTVSS | low polyreactivity |
| QVQLVESGGGLVQAGGSLRLSCAASGFIFGIYAMGWYRQAPGKERELVARISRSGVSTYYADSVKGRFTISRDNAKNTVYLQMNSLKPEDTAVYYCNAYRGGLSSEHYYWGQGTQVTVSS | high polyreactivity |
| QVQLVESGGGLVQAGGSLRLSCAASGRIFSTNAMGWYRQAPAKERELVAAITRGVSTKYADSVKRRFTISRDNAKNTVYLQMNSLKPEDTAVYYCAASVVWGPESDYWGQGTQVTVSS | low polyreactivity |
| QDQLVESGGGLVQAGGSLRLSCAASGRIFGTYAMGWYRQAPGKERELVATISYSSGRTYYADSVKGRFTISRDNAKNTVYLQMNSLKPEDTAVYYCAAVGTGSSLRYDYWGQGTQVTVSS | high polyreactivity |
| QVQLVESGGGLVQAGGSLRLSCAASGSTFPYYAMGCYRQAPGKERELVAAISWSDANTYYADSVKGRFTISRDNAKNTVYLQMNSLKPEDTAVYYCAAEPYDRYVPYTGYGLNYWGQGTQVTVSS | low polyreactivity |
| QVQLVESGGGLVQAGGSLRLSCAASGFIFPFYAMGWYRQAPGKERELGASITWSGSTYADSVKGRFTISRDNAKNTVYLQMNSLKPEDTAVYYCNTDPRSVVGWYAYWGQGTQVTVSS | low polyreactivity |
| QVQLVESGGGLVQAGGSLRLSCAASGRTFRSNGMGWYRQAPGKERQLVATISEGGGSTYYADSVKGRFTISRDNAKNTVYLQMNSLKPEDTAVYYCAATVYPSVYGENHYGYWGQGTQVTVSS | high polyreactivity |
| QVQLVESGGGLVQAGGSLRLSCPASGGIFGRYAMGWYRQAPGKERELVAAISSSGGRTYYADSVKGRFTISRDNAKNTVYLQMNSLKPEDTAVYYCNADRHSTYGYWGQGTQVTVSS | high polyreactivity |
| QVQLVESVGGVVQAGGSLRLCCAANRSTFAAKAMGWYRQAPGKERELGAAITSGGGTNYADSVKGRFTISRDNAKNTVYLQMNSLKPEDTAVYYCAARTWPWVLGATQDDYWGQGTQVTLSS | low polyreactivity |
| QVQLQESGGGLVQAGGSLRPSCAPSGSISDGDPMAWYRQAPGEERELVATTVLGATTNYADSVKGRFTISRGNAENTVYLERYWLKPVETAVYYCAAPLRYDKGFSYWGQGTQVTVSS | low polyreactivity |
| QVQLVESGGGLVQAGGSLRLSCAASGLIFYSNAMGWYRQAPGKERELVATISGSTGTTNYADSVKGRFTISRDNAKNTVYLQMNSLKPEDTAVYYCAAEWRRYEYADSWEYDYWGQGTQVTVSS | low polyreactivity |
| QVQLVESGGGLVQAGGSLRLSCAASGSIFFPNAMGWYRQAPGKERELVAAITSTSTNYADSVKGRCTNSRDNAKNTVYLQLNSLKPEDTAVYYCAADGEFRRAWYEGDYWGQGTQVTVSS | low polyreactivity |
| QVQLVESGGGLVQAGGSLRLSCAASGFIFDDNAMGRYRQAPGKERELVAAITSGGGSTYYADSVKGRFTISRDNAKNTVYLQMNSLKPEDNAVYYCNAVPSQHVEFDYWGQGTQVTVSS | low polyreactivity |
| QVQLVESGGGLVQAGGSLRLSCAASGSTFGWYAMGWYRQAPGKERELVASITSGGRTNYADSVKGRFTISRDNAKNTVYLQMNSLKTEDTAVYYCAKRVYGSNSLYDYWGQGTQVTVSS | low polyreactivity |
| QVQLVESGGGLVQAGGSLRLSCAASGRISAFNSMGWYRQAPGKERELVAAINVSGGNTYYADSVKGRFTISRDNAKNTFFLQMNSLKPEDTAVYYCAAERRRWGLDYYYWGQGTQVTVSS | high polyreactivity |
| QVQLVESGGGLVQAGGSLRLSCAASGGIFLPNAMGWYRQAPGKERELVAAISTGGSTNYADSVKGRFTISRDTAKNTVYLQMNSLKPEDTAVYYCAATPYNYVGFSRGGDYWGQGTQVTVSS | low polyreactivity |
| QVQLVESGGGLVQAGGSLRLSCAASGRTFEHYAMGWYRQAPGKERELVAAINSSDGGTYYADSVKGRITISRDNPKNTVYLQMNSLKPEDTAVYYCAAAEFGSVPGYEMDYWGQGTQVTVSS | low polyreactivity |

| Sequence | polyreactivity (PSR sort gate) |
| --- | --- |
| QVQLVESAGGLVQAGGSLRLSCAASGSIFPLYAMGWYRQAPGKERELVAAISYSGGRTYYADSVKGRFTISRDNAKNTVYLQMNSLKPEDTAVYYCNTRQRVIDDYWGQGTQVTVSS | high polyreactivity |
| QVQLVESGGGLVQAGGSLRLSCAASGFIFYRYAIGWYIQAPGKEREFVASISGSGGRTYYADSVKGRFTISRDNAKNTVYLQMNTLKPEDTAGYYCAADRYSAYLYWDEYWGQGTQVTVSS | high polyreactivity |
| QVQLVESGGGLVQAGGSLRLSCAASGLTIRNYAMGWYRQAPGKERELVAAITVSGGSTYYADSVKGRFTISRDNAKNTVYLQMNSLKPEDTAVYYSSARVIHTTYSRNYYYWGQGTQVTVSS | high polyreactivity |
| QVQLVESGGGLVQAGGSLRLSCAASGFIFAWYAMGWYRQAPGKERELVADITSGGDTSYADSVKGRFTISLDNAKNTVYLQMNSLKPEDTAVYYCAAVWEPWNIRLVLTAVDYWGQGTQVTVSS | low polyreactivity |
| QVQLVESGGGLVQAVVSLRLSCAASGGTITSYAMVSSRQAPGKERELVAAITRSGGSTYYADSVKGRFTISRDNAKNTVYLQMKSLKPEDTAVYYCAARYWHSYGYWGQGTQVTVSS | high polyreactivity |
| QVQLVESGGGLVQAGGSLRLSCAASGRTFDYYAMGWYRPAPGKERELVAAIRTSGGSTNYADSVKGRFTISRDNAQNTVYLLMNSLKPEDTAVYYCAARDRPGAYYYGGQGTQVTVSS | high polyreactivity |
| QVQLVESGGALVQAGGRLRLSCAASGLTLHRYTMGWYRQAPGKERELVAVITYGGGNTYYADSVKGRFTISRDNAKNTVYLQMNSLKPEDNAVYYCAARYPPFYWYDYWGQGTQVSVSS | low polyreactivity |
| QVQLVESGGGLVQAGGSLRLSCAASGPTIDLYAMGCYRQAPGKERELVATIRSDGSTTYADSVKGRFTISRDNAKNTVYLQLNSLKPEDTAVYDCAAAFRSGFSSSTTPVQSDWGQGTQVTVSS | low polyreactivity |
| QVQRVESGGGLVQAGGSLRLSCAASGRIFRYYAMGWYRQAPGKERELVASISRRGGSTNYADSVKGRFTISRDNAKNTVYLQMNSLKPEYTAVYYSNAENWSPRGLYNYWGQGTQVTVSS | high polyreactivity |
| QVQLVESGGGLVQAGGSLRLSCAASGIIQGVYALGWYRQAPGKERELVAAITSSGGSTYYADSVKGRFTISRDNAKNTVYLQMNSLKPEDTAVYYCAADFDTSVRLYGPTRYDYWGQGTQVTVSS | low polyreactivity |
| QVQLVESGGGLVQAGGSLRLSSAASGRTFYSNAMGWSRQAPGKERELVAAITSTDDSTYYADSVKGRFTISRDNAKNTVYLQMNSLKPEDTAVYYCNTDGLIAIRCVWWVEYDYWGQGTQVTVSS | low polyreactivity |
| QVQLVESGGGLVQAGGSLRLSCAASGFTYSFYTMGWSRQAPGKERELVAAISRNGGSTYYADSVKGRFTISRDNAKNTVYLQMNSLKPEDTAVYYCAARARGGDWGSGDYWGQGTQVTVSS | high polyreactivity |
| QVQLVESGGGLVQAGGSLRLSCAASGRTFYYYDMGWYRQAPGKERELVAAISASGGSTYYADSVKGRFTISRDNAKNTVYLPMNSLKPDDTAVYYCAATLYHYWYSDFDYWGQGTQVTVSS | high polyreactivity |
| QVQLVESGGGLVQAGGSLRLSCAASGFTFYTYAMRLYRQAPGKERELVAAISKSGGSTYYADSVKGRFTISRDNAKNTVYLQMNSLKPEDTAVYYCAAVVVYFDEYDYWGQGTQVTVSS | low polyreactivity |
| QVQLVESGGGLVQAGGSLRLSCAASGLIFVHYAMGWYRQAPGKEREFVAAITWSGGSKYYADSVKGRFTISRDNAKNTVYLQMNSLKPEDTAVYYCAVDGFRPGTASFGYWGQGTQVTVSS | low polyreactivity |
| QFQLVESGGGLVQAGGRLRLSCAASGSIFYRNAMGWYRQAPGKERELVAAISASGGSTYYADSVKGRFTISRDNEKNTVYLQMIILKPEDTAVYYCDVEYRKSRSYAPMGYWGQGTQVTVSS | high polyreactivity |
| QVQLVESGGGLVQAGGSLRLSCAASGFTFRRNAMGWYRQAPGKERELVAAISSSGGSTSYADSVKGRFTISRDNAKNTVYLQMNSLKPEDTAVYYCAVEVASYDRRPSEYYWGQGTQVTVSS | high polyreactivity |
| QVQLVESGAGLVQAGGRLRLSCAATGLTFYFYVMGWYRQAPGKERELVADISTSDDSTYYADSVKGRFTISRDNAKNTVYLQMNSLKPEDTSVYYCATATRTYSAWYEYDYWGQVTQVTVSS | low polyreactivity |
| QVQLVESGGGLVQAGGSLRLSCAASGSIFQYYAMGWYRQAAGKERELVAAISGSGGRTYYADSVKGRFTISRDNAKNTVYLQMNSLKPEDTAVYYCNTVWWKQYNYWGQGTQVTVSS | high polyreactivity |
| QVQLVESGGGLVQAGGSLRLSCAASGSIFWYNAMGWYRQAPGKERELVAAISVGGGSTSSADSVKGRFTISRDNAKNTVYLQMHSLKPEDTAVYYCNSVRYYRLFAHYGEYGYWGQGTQVTVSS | high polyreactivity |
| QVQLVESGGGLVQAGGSLRLSCAASGFTFYTNAMGWYRPAPWKERELVAAIYARTGRTYYADSVKGRFTISRDNAKNTVFLQMNSLKPEDTAVYYCAKDRQSSSTDYGYWGQGTQVTVSS | high polyreactivity |
